Laboratory results as given in the nanobody polyreactivity screen of Harvey et al. (2022).

Assay: yeast display, Sf9 membrane polyspecificity reagent, FACS + sequencing; frameworks hold sequencing errors
Procedure, shortened: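 Nanobodies from a synthetic yeast display library (Saccharomyces cerevisiae BJ5465), induced 36–48 hours with galactose, were stained 1 hour at 4 °C with 10% biotinylated, detergent-solubilized Sf9 membrane reagent, enriched on streptavidin microbeads, then FACS-sorted. Anti-HA (expression) and streptavidin (reagent binding) fluorescence set low and high (top ~1%) gates. Polyreactivity labels come from the gate of origin. Genes were colony-PCR amplified, MiSeq 2 × 250 sequenced and filtered by CDR length.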
In the case of “QVQLVESGGGLVQAGGSLRLSCAASGFTFGANVMGWYRQAPGKERELVAGITWSGDSTYYADSVKGRFTISRDNAKNTVYLQMNSLKPDDTAVYYCAADVYDGEYILDYDYWGQGTQVTVSS”, the “polyreactivity (PSR sort gate)” value is reported as “low polyreactivity”. With “QVQLVESAGGLVQAGGSLRLSSDASGFTFYRYAIGWYIQAPGKEREFVAAISWRGTSTYYADSVKGRFKISRDNANNTVYLQMNSLKPEETAVYYCTARRDICWGYHMDYWGQGTQVTVSS” the “polyreactivity (PSR sort gate)” value was “high polyreactivity”. In the case of “QVQLVESGGGLVQAGGSLRLSCSASGITFEGYAMGGYRQAPGKERELVAAIRSSGTSRYYADSVKGRFTISRDNAKNTVYLQMNSQKPEDTAVYYCNRARSSSRYDYWGQGTQVTVSS”, the “polyreactivity (PSR sort gate)” value is reported as “low polyreactivity”. For “QVHLVESGGGLVQAGCSLRLSCAASGFTYYYYAIGWYRQAPGTEMELVAAISSGGSTNYADSVKGRFTISRDNANNTVYLQMNSLKPEDTAVYYCAATQPYWWAYRYDYWGQGTKVTVSS”, the “polyreactivity (PSR sort gate)” value was “low polyreactivity”. For “QVQLVESGGGLVQAGGSLRLSCASSGSIFYQNAMGWYRQAPGKEREFVAAIRSSGSSTYYADSVKGRFTISRDNAKNTVYLQMNSLKPEDTAVYYCAAPSSRGQGRNFDYWGQGSQVTVSS”, the “polyreactivity (PSR sort gate)” value was “high polyreactivity”. For “QVQLVESGGGLVQAGGSLRLSCAASGFIFKSYAMGWYRQAPGKETELVAAISRSGSSTYYADSVKGRFTISRDNAKNTVYLQMNSLKPEDTAVYYCAKKGYRFIHFGYDYWGQGTQVTVSS”, the “polyreactivity (PSR sort gate)” value was “high polyreactivity”. For “QVQLVESGGGLVQAGGSLRLSCAASGSTFVTYAMGWYRQAPGKERELVATITTSGGSTYYADSVKGRFTISRDNAKNTVYLQMNSLKPEDTAVYYCAADYYSNYSRFDYWGQGTQVTVSS”, the “polyreactivity (PSR sort gate)” value was “low polyreactivity”. In the case of “QVQLVESGGGLVQAGGSLRLSCAASGYIFVNAMGWYRQAPGKERELVAAISSGRSTHYADSVKGRFTISLDNAKNTVYLQLNSLKPEDTAVYYCNADLYSWYWAGYNYWGQGTQVTVSS”, the “polyreactivity (PSR sort gate)” value is reported as “high polyreactivity”. With “QVQLVESGGGLVQAGGSLRLSCAASGSIFRGYAMGWYRQAPGKERELVAAINSSGGRTYYADSVKGRFTISRDNAKKTVYLQMNSLKPEDTAVYYCNARSKYPSYFSSMGYWGQGTQVTVSS” the “polyreactivity (PSR sort gate)” value was “high polyreactivity”. With “QVQLVESGGGLVQAGGSLRLSCAASGFILGTYAMGWYRQATGKERELVADISWSVGSTYYADSVKGRFTISRDNAKNTVYLQMISLKPEDTAVYYCNADGYTLWYEYDYWGQGTQVTVSS” the “polyreactivity (PSR sort gate)” value was “low polyreactivity”. In the case of “QVQLVESGGGLVQAGGSLRLSCAASGSTFYPYAKGWYRQAPRKERELVATITNSGGSTYYADSVKGRFTISRDNAKNTVYLQMNSLKPEDTAVYYCARVRSRNTGYYYWGQGTQVTVSS”, the “polyreactivity (PSR sort gate)” value is reported as “high polyreactivity”. In the case of “QDQLVESGGGLVQAGGSLRLSSAASGRIFKWNAMGWYRPAPGTERQLVAAIRWSGTSTYADSVKGRFTISRDNAKNTVYLHMNSLKPEDTAVYYCAAQDVSAPGWWLHYWGQGTQVTVSS”, the “polyreactivity (PSR sort gate)” value is reported as “low polyreactivity”. For “QVQLVESGGGLVQAGGSLRLSCAASGNIFKGYAMGWYRQAPGKERALVAAISKSGGSTYDADSVKGRFTISRDNAKNTVYLQMNSLKPDDTAVYYCNARRKYGGGQTINGYDYWGQGTQVTVSS”, the “polyreactivity (PSR sort gate)” value was “high polyreactivity”. In the case of “QVQLVESGGGLVQAGGSLRLSCAASGFTFELYDMGWYRQAPGKERELVARITRSGGSTNYADSVKGRFTISRDNAKNTVYLQMNSLKPEDTAVYYCAAKSPLFGLTSYPGPDDSWGQGTQVTVSS”, the “polyreactivity (PSR sort gate)” value is reported as “low polyreactivity”. For “QDQLVESWGGLDKAGGSLLLICDASGSTFKFYTMGWYRQAPGKERELVATIDWSGVSTYYADSVKGRFTISRDNAKNTVYLQMNSLKPEDTAVYYCAARSLRLVGPYYYWGQGTQVTVSS”, the “polyreactivity (PSR sort gate)” value was “high polyreactivity”. In the case of “QVQLVESGGGLVQAGGSLRLSCGASGFTFDVYAMGWYRQAPGKERELVARIRWSGGSTSYADSVKGRFTISRDNAKNTVYVQMNSLKPEDTAVYYCNTRRIYVNSGRGDYWGQGTKVTVSS”, the “polyreactivity (PSR sort gate)” value is reported as “low polyreactivity”. With “QVQLVESGVGLVQAGGSLRLSCAASGFTFNYNAMGWYRQAPGKERELVADISRSGGSTYYADSVKGRFTISRDNAKNTVYLQMNSLKPEDTPVYYCAAVRAIGKYGYWGHGTQVTVSS” the “polyreactivity (PSR sort gate)” value was “high polyreactivity”. For “QVQLVESGGGLVQAGGSLRLSCASSGISFRRNAMGWYRQAPGKERELVAISTICGSTYYADSVNGRFTIARDNAKNTVYLQMNTLKPEDTAVYYCAAEGKSTGVYLDGGEGFAYDYWGQGTQVTVSS”, the “polyreactivity (PSR sort gate)” value was “low polyreactivity”. For “QVQLVESGGGLDQAGGSLRLSCAASGRIFIKNTMGWYRQAPGKERELVAAITSSGSSTYYADSVKGRFTISRDNAKNTVYLKMNSLKPEDTAVYYCNALTWDHSRTGVDYWGQGTQVTVSS”, the “polyreactivity (PSR sort gate)” value was “low polyreactivity”. With “QVQLLESGGGLVQAGGSLPVSCAASGSTFDTNDMVWYRQAPGKERELVAAISSGGDYADSVKGRFTISRDNAKNTVYLQMNSLKPEDTAVYYCAKDDTKWGQGTQVTVSS” the “polyreactivity (PSR sort gate)” value was “low polyreactivity”. In the case of “QVQLVESGGGLVQAVGSLRLSCAASGRIFVYNAMGWYRQAPGKERELVASITSSGGSTYYADSVKGRFTISRDNAKNTFYLQMNSLKPEDTAVYYCAADVQPDTRSTPEMDYWGQGTQVTVSS”, the “polyreactivity (PSR sort gate)” value is reported as “low polyreactivity”. In the case of “QVQLVESGGGLVQAGGSLRLSCAASGYTFVLNAMGWYRQAPGKEREMVAAINLDSGNTNYADSVKGRFTISRDNAKNTVYLQMNSLKPEDTAVYYCNTDVKFGGTAYDYWGQGTQVNVSS”, the “polyreactivity (PSR sort gate)” value is reported as “low polyreactivity”. With “QVQLVESGGGLVQAGGSLRLSCAASASIFRYYAMGWYRQAPGKERELVAAISYSGGSTYYADSVKGRFTISRDNAKNTVYLQMNSLKPEDTAVYYCAVPLICVDGYAYDYWGQGTQVTVSS” the “polyreactivity (PSR sort gate)” value was “low polyreactivity”. For “QVQLVESGGGLVQAGGSLRLSCAASGRIFVHNAMGWSRQAPGKERELVAAISSGGSTYYADSVKGRFTISRDNAKNTVYLQMNSLKPEDTAVYYCAIYAYYNKYDYWGQGTQVTVSS”, the “polyreactivity (PSR sort gate)” value was “high polyreactivity”. With “QVQLVESGGGLVQAGGSLSLSCAATGSIITSNAMGWYRQAPGKERELVAAISWSGSRTFYADSVKGRFTISRDNEKNTVYLQMNSLKPEDTAVYYCAAGNRKWKMGYWGQGTQVTVSS” the “polyreactivity (PSR sort gate)” value was “high polyreactivity”. For “QVQLVESGGGLVQAGGSLRLSCAASGFTLWYYAMGWYRQAPGKERELVAGINSGGRTYYADSVKGRFTISRDNAKNTVYLQMNSLKPEDTAVYNCNARAWSSISHNSYIMDYWGQGTQVTVSS”, the “polyreactivity (PSR sort gate)” value was “high polyreactivity”. With “QVQLVESGGGLVQAGGSLRLSCAASGFIFSYYTMGWYRQAPGKERELVAAITSGGSTNYADSVKGRFTISRDNAKNTVYLQMNSLKPEDTAVYYCNALLWAWTLWGSGYDYWGQGTQVTVSS” the “polyreactivity (PSR sort gate)” value was “low polyreactivity”. For “QVQLVESGGGLVQAGGSLRISCAASGSIFAKNAMGWYRQAPGKERELVAGIDFSGGSTYYADSVKGRFTISRDNAKNTVYLQMNSLKPEDTAVYYCAADWAYKYELDYWGQGTQVTVSS”, the “polyreactivity (PSR sort gate)” value was “low polyreactivity”. In the case of “RVQLQESGGGLVQAGGSLRLSCAPSSTISRYFYMGWYRQAPGKEREFVASITYGASTNYADSVKGRFTISRDNAKNTVYLQMNSLKPEDTAVYYCNAKQQPYGGTDYDYWGQGTQVTVSS”, the “polyreactivity (PSR sort gate)” value is reported as “low polyreactivity”. With “QVQLEESGGGLVQAGGSLRLSCAASGFTFRRYAMGWYRQAPGKERELVAAITRSGSSTYYADSVKGRFTISRDNAKNTVYLQMNSLKPEDTAVYYCARYHLRPTDGFDYWGQGTQVTVSS” the “polyreactivity (PSR sort gate)” value was “high polyreactivity”. For “QVQLVESGGGLVQAGGSLRLSCAASGRIFTKNTKGWYRQAPGKERELVAAIRSRAGSTYYADSVKGRFTISRDNAKNTVYLQMNSLKPEDTAVYYCAVPWFRSVDFDYWGQGTQVTVSS”, the “polyreactivity (PSR sort gate)” value was “low polyreactivity”. In the case of “QVQLVESGGGLVQAGGSLRLSCAASGSTFVRYAKGWYRQAPGKERELVAGISRRSGRTYYADSVKGRFTISRDNAKNTVYLQMNSLKPEDTAVYYCAARGIGGYEYWGQGTQVTVSS”, the “polyreactivity (PSR sort gate)” value is reported as “high polyreactivity”. In the case of “QVQHVESGGGLVQAGGSLRLSCAASALTFSSNAMGWYRQAPGKERELVAVITNGGSTNYADSVKGRLTISRDNAKNTVYLQMNSLKPEDTAVYYCAIDGGPAQDIGMDYWGQGTHVTVSS”, the “polyreactivity (PSR sort gate)” value is reported as “low polyreactivity”. For “QVQLVESGGGLVQSGGILLLSCAASGITFGRNAMGWYRQAPGKEGELVAAISRGGSTNYADSVKGRFTISRDNAKNTVYLQMNRLKPEDTAVYYCATAYRGRAWGYDYWGQGTQVTVSS”, the “polyreactivity (PSR sort gate)” value was “high polyreactivity”. With “QVPLVESGGGLVQAGGSLRLSCAASGRIFGTNTMGWYRQAPGKEREWVAAITWSGGSTYYADSGTGRFTISRDNAKNPVYLQMNSLNPEDTAGYYCNVESAYAYHGPVDYWGQGTQVTVSS” the “polyreactivity (PSR sort gate)” value was “low polyreactivity”. For “QVQLVESGGGLVQAGGSLRLSCAASGRTFQYYAMGWNRQAPGKERELVAAISQDGGSTYYADSVKGRFTISRDNAKHSVYLQMNSLKPEDTAVYYCDAEVWRSYGYWGQGTQVTVSS”, the “polyreactivity (PSR sort gate)” value was “low polyreactivity”. In the case of “QVQLVESGGGLVQAGGSLRLSCAASGFTIDTYAMGWYRQAPGKERELVAGISWSGGSTYYADSVKGRFTISRDNAKNTVYLQMNSLKPEDTAVYYCARTARRRYQPYEYWGQGTQVTVSS”, the “polyreactivity (PSR sort gate)” value is reported as “low polyreactivity”. In the case of “QVQLVESGGGLVQAGGSLRLSCAASGSTFFPNDKGWYRQAPGKERELVAAISWRGGNTYADSVKGLFTISRDNAKYTVYLQMNSLKPEDTAVYYCAAEFWYTYPYLVDYWGQGTLVTVSS”, the “polyreactivity (PSR sort gate)” value is reported as “low polyreactivity”. In the case of “QVQLVESGGGLVQAGGSLRLSCAASGYIFRYYVMGWYRQEPGKERELVAAITFSGGNTYYADSVKGRFTISRDNAKITVYLQMNSLKPEDTAVYYCAADVLYVGGSDYDYWVQGTQVTVSS”, the “polyreactivity (PSR sort gate)” value is reported as “low polyreactivity”. In the case of “QVQLVESGVGLVQAGGSLRLSCAASGLTFYSYAMGWSRQAPGKERELVATISRNGGPTRYADSVKGRFTISRDNAKNTVYLQMNSLKPEDTAVYYCTYVQSGEYDYWGQGTQVTVSS”, the “polyreactivity (PSR sort gate)” value is reported as “high polyreactivity”. In the case of “QVHLVESGGGLVQAGGSLRLSCAASGRTFENNAMGWYRPAPGKESELVAAITVSGGSTYYADSVKGRFTLSRDNAKNTVDLQMNSLKPEDTAVYYCAIVGFGIPGGFYYWGEGTQVTVSS”, the “polyreactivity (PSR sort gate)” value is reported as “low polyreactivity”. With “QVQLVESGGGLVQAGGRLRLSCAASGSIFQSYAMGWYRQAPGKERELVAVITGGGGSTYYADSVKGRFTISRDNAKNTVYLQMNSLKPEDTAVYYCAARPVTSYAYGSWGQGTQVTVSS” the “polyreactivity (PSR sort gate)” value was “low polyreactivity”. In the case of “QVQLVESGGGLVQAGGSLRLSCAASGYIFYDYAMGWYRQAPGKERELVAAIRRSTGTTYYADSVKGRFTISRDNAKNTVYLQMNSLKPEDTAFYYCAALFRPRVHRYDYWGQGTQVTVSS”, the “polyreactivity (PSR sort gate)” value is reported as “low polyreactivity”.
